Source: US20210171593A1
Blank lines part the entries; values can stand above or below the molecule they belong to.

Assays:
[1] = target: CD47 on the surface of tumor cells (Raji cells, Jurkat cells, A549 cells) (human) (UniProt Q08722); test: flow cytometry on A549 cells
[2] = target: CD47 on the surface of tumor cells (Raji cells, Jurkat cells, A549 cells) (human) (UniProt Q08722); test: flow cytometry on Raji cells
[3] = target: CD47 on the surface of tumor cells (Raji cells, Jurkat cells, A549 cells) (human) (UniProt Q08722); test: flow cytometry on Jurkat cells
[4] = target: Biotin-Fc-CD47 (Homo sapiens (Human)) (UniProt Q08722); test: competition ELISA: blocks Biotin-Fc-CD47 binding to coated SIRPα-His
[5] = target: CD47-FITC (Homo sapiens (Human)) (UniProt Q08722); test: flow cytometry of the wild domain control with the same gate as the library panel above it (CD47-FITC in the text, x axis printed APC-A), first panel, under the 3% panel
[6] = target: CD47-FITC (Homo sapiens (Human)) (UniProt Q08722); test: flow cytometry of the wild domain control with the same gate as the library panel above it (CD47-FITC in the text, x axis printed APC-A), second panel, under the 4.9% panel
[7] = target: CD47-FITC (Homo sapiens (Human)) (UniProt Q08722); test: flow cytometry of the wild domain control with the same gate as the library panel above it (CD47-FITC in the text, x axis printed APC-A), third panel, under the 12.5% panel

EC50 [1]: 1 µg/mL | maximum fluorescence intensity [1]: 60 | EC50 [2]: 0.0404 µg/mL | maximum fluorescence intensity [2]: 600 | EC50 [3]: 0.0539 µg/mL | maximum fluorescence intensity [3]: 3000 | IC50 [4]: 494 µg/mL
Molecule: TTI-621 (Fc fusion)

percent of cells in gate P2 [5]: 1.3% | percent of cells in gate P2 [6]: 0% | percent of cells in gate P2 [7]: 0%
B1: Wild domain control (receptor, part only; not given: display vector transmembrane region, not shown: another chain or arm of the molecule; large carriers; small tags and cut ends)
chain: ELQVIQPDKSVLVAAGETATLRCTATSLIPVGPIQWFRGAGPGRELIYNQKEGHFPRVTTVSDLTKRNNMDFSIRIGNITPADAGTYYCVKFRKGSPDDVEFKSGAGTELSVRAKPS
modifications: displayed on the CHO cell surface through the pTM transmembrane region (no letters given); the pTM signal peptide is left off as cleaved
